According to paper PMC8048964 (Angewandte Chemie (International Ed. in English), 2021):

Assays:
U2OS cells = test: Live-cell delivery to U2OS cells, confocal laser scanning microscopy; assay type: cell-based
HeLa cells = test: Live-cell delivery to HeLa cells, CLSM and FiJi image analysis; assay type: cell-based; conditions: CLSM

TAMRA-SUMO2-cR10D [compound 15]
signals in lysosomes or endosomes (punctuates) compared to analogue 14 (U2OS cells; 4 μM in PBS, 37 °C, 45 min, CLSM): significantly fewer signals

TAMRA‐Cys(cR10)‐Ub [compound 7]
endosomal or lysosomal entrapment / cytosolic availability of protein (HeLa cells): cytosolic availability of protein was not improved

TAMRA-Ub(S20C(cR10D))-PA [compound 11]
live-cell delivery (TAMRA signal, CLSM) (U2OS cells; 2 μM in PBS, two independent sets of experiments (Figure S23)): significantly good
